Data reported in publication PMC6789926.

biological target: tetrameric soluble CedV G (sG) (Cedar virus); experiment: SPR

Molecule	Kd	koff	kon
mouse ephrin-B2 (soluble, Fc-conjugated) (from UniProt P52800 29-232) (Fc fusion)	0.56 nM	0.00103 s⁻¹	1.84e+06 M⁻¹ s⁻¹
mouse ephrin-B1 (soluble, Fc-conjugated) (from UniProt P52795 25-345) (Fc fusion)	0.24 nM	0.00029 s⁻¹	
human ephrin-A1 Fc (Fc fusion)	4210 nM	0.00981 s⁻¹	
mouse ephrin-A2 (soluble, Fc-conjugated) (Fc fusion) RNEDPARANADRYAVYWNRSNPRFQVSAVGDGGGYTVEVSINDYLDIYCPHYGAPLPPAERMERYILYMVNGEGHASCDHRQRGFKRWECNRPAAPGGPLKFSEKFQLFTPFSLGFEFRPGHEYYYISATPPNLVDRPCLRLKVYVRPTNETLYEAPEPIFTSN	196 nM	0.00636 s⁻¹	32400 M⁻¹ s⁻¹
mouse ephrin-A1 (soluble, Fc-conjugated) (Fc fusion) ADRHIVFWNSSNPKFREEDYTVHVQLNDYLDIICPHYEDDSVADAAMERYTLYMVEHQEYVACQPQSKDQVRWNCNRPSAKHGPEKLSEKFQRFTPFILGKEFKEGHSYYYISKPIYHQESQCLKLKVTVNGKITHNPQAHVNPQEKRLQADDPEVQVLHSIGYS	24.5 nM	0.00179 s⁻¹	73900 M⁻¹ s⁻¹
human ephrin-A5 (soluble, Fc-conjugated) (Fc fusion) QDPGSKAVADRYAVYWNSSNPRFQRGDYHIDVCINDYLDVFCPHYEDSVPEDKTERYVLYMVNFDGYSACDHTSKGFKRWECNRPHSPNGPLKFSEKFQLFTPFSLGFEFRPGREYFYISSAIPDNGRRSCLKLKVFVRPTNSCMKTIGVHDRVFDVNDKVENSLEPADDTVHESAEPSRGEN	113 nM	0.00079 s⁻¹	
